Target: human protein C (human) (UniProt P04070)
Experiment: protein C affinity column (protein C held on HPC4 mAb-AffiGel-10, 3 mM CaCl2, 0.6 mM MgCl2); EPCR antigen in the fractions measured by ELISA

UniProt P04070, sequence (P04070 43-461): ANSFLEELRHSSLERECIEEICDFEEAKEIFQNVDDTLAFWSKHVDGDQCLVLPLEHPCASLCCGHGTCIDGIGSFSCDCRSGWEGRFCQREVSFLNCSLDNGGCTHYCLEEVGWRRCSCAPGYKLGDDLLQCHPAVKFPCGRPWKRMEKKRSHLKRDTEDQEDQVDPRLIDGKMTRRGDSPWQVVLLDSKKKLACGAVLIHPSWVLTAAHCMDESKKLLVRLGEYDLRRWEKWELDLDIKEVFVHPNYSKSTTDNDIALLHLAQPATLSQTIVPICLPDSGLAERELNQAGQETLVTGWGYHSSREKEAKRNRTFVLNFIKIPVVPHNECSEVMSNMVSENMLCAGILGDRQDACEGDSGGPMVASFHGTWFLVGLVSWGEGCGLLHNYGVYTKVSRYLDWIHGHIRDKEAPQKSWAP

- percent of applied antigen bound: > 98%
B1: plasma EPCR (soluble endothelial cell protein C/activated protein C receptor purified from human citrated plasma) (receptor)
chain: SQDASDGLQRLHMLQISYFRDPYHVWYQGNASLGGHLTHVLEGPDTNTTIIQLQPLQEPESWARTQSGLQSYLLQFHGLVRLVHQERTLAFPLTIRCFLGCELPPEGSRAHVFFEVAVNGSSFVSFRPERALWQADTQVTSGVVTFTLQQLNAYNRTRYELREFLEDTCVQYVQKHISAENTKG
